Experiment [1] has as its target T1, GST-41.8 kD protein (KIAA0751) PDZ domain fusion protein (Mus musculus (Mouse), UniProt Q9EQZ7 682-763).
T1 construct: also called 41 kd; hypoth; not shown: glutathione S-transferase encoded by vector pGEX-3X (Pharmacia)
T1 sequence: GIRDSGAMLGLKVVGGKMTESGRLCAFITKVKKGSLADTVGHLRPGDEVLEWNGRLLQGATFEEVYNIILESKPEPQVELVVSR
The experiment in a line: G assay competition on plate-bound GST-41.8kD; blocked ligand: 20 uM biotinylated CD49E peptide.

In experiment [2] the target is T2, KIAA0807 (PDZ domain)-GST fusion protein (human, UniProt Q6P0Q8 1104-1192).
T2 construct: also called K807; KIAA807; not shown: glutathione S-transferase encoded by vector pGEX-3X (Pharmacia)
T2 sequence: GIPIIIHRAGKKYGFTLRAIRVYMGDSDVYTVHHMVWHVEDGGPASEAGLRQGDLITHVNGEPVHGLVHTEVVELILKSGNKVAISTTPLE
The experiment is described as follows: G assay competition against 1 uM BLR-1 20-mer.

Experiment [3] has as its target T3, GST-PSD95 fusion protein (PDZ domains 1-3) (human, UniProt P31016 56-395 (rat entry)).
T3 construct: also called human post-synaptic density protein 95; not shown: glutathione S-transferase encoded by vector pGEX-3X (Pharmacia)
The experiment in a line: G assay competition on plate-bound GST-PSD95, competitor at 100 uM; blocked ligands: biotinylated Clasp 2 and CD46 (20 uM), Fas and KV1.3 (10 uM) peptides.

In experiment [4] the target is T2, KIAA0807 (PDZ domain)-GST fusion protein. The experiment is described as follows: G assay competition against 10 uM DOCK2 20-mer; acetyl-STDL competing against 10 uM DOCK2 20-mer.
The target in experiment [5] is T3, GST-PSD95 fusion protein (PDZ domains …). The experiment is described as follows: G assay: biotinylated peptide on plate-bound GST-PDZ fusion, OD 450 nm.
Experiment [6] deals with T2, KIAA0807 (PDZ domain)-GST fusion protein. The experiment is described as follows: G assay competition against 10 uM DOCK2 20-mer; 8-mer DOCK2 peptide competing against 10 uM DOCK2 20-mer.

The results in this text go back to patent US20050037969A1 (ARBOR VITA, published 2005).

Ends that are not written are not given here. * marks the point of attachment. Biotin = O=C1N[C@H]2[C@H](CS[C@H]2CCCCC(=O)*)N1

T3 sequence (P31016 other isoform, or with tags, fused parts or gaps): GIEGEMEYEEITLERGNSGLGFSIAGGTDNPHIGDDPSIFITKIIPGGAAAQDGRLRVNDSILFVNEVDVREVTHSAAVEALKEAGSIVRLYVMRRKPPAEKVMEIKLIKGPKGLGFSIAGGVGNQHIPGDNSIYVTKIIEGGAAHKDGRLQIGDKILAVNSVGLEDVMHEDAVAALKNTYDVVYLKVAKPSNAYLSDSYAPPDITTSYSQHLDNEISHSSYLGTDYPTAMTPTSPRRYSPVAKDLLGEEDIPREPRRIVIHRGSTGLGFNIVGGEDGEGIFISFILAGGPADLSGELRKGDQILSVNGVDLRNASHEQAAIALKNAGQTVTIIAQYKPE

ATSDA (also called 5-mer CD49E peptide ATSDA) [CD49E 5mer]: in experiment [1], the binding result is listed as “binds”.
By IC50 is commonly meant the concentration needed to halve the response being measured. The low end stands for greater potency, the high end for weaker potency. The molecule Ac-LTTF (it is an N-acetyl tetrapeptide) [acetyl-LTTF] came in with an IC50 in experiment [2] of 1 µM.

B1: Fas (CD95) 8-mer competitor peptide RNEIQSLV (unlabeled) (peptide)
peptide: RNEIQSLV
notes: also called FAS-8-mer; 8-mer peptide corresponding to the C-terminus of CD95 (Fas)
On to B1, for which, in experiment [3], the binding result was “binds”.
Turning to Ac-STDL (it is an N-acetyl tetrapeptide) [acetyl-STDL], the IC50 in experiment [4] is less than 250 µM.
With NATSLTTF (also called BLR-1 8-mer) [8-mer peptide corresponding to the C-terminus of BLR-1], in experiment [2], the IC50 is more than 100 µM.
In the case of TTNNNPNSAVNIKKIFTDV (also called KV13 peptide) [unlabeled 19-mer having the sequence of the C-terminus of KV1.3 (non-biotinylated AA33L)], in experiment [3], the binding result is “binds”.
Still for that read-out and setting: with REVKFTSL [CD46 8-mer competitor peptide REVKFTSL (unlabeled)] the entry was “binds”.

B2: 30 (peptide)
peptide: Biotin-TIYENLAPVTTFGKTIA
notes: Not the same peptide as m50 (AA19L, ending GYIA); the key gives AA55L for peptide 30; also called CD148
For the molecule B2, the binding result in experiment [5] is “no binding”.
Molecule PDSLSTDL (also called DOCK2 8-mer) [8-mer peptide corresponding to the C-terminus of DOCK2] came in with a 50% inhibitory concentration (IC50) in experiment [6] of 250 µM.
